Measured values taken from patent US20090042869.

Target: recombinant SF2/ASF (Protein One) (UniProt Q07955)
Sequence (Q07955 whole entry): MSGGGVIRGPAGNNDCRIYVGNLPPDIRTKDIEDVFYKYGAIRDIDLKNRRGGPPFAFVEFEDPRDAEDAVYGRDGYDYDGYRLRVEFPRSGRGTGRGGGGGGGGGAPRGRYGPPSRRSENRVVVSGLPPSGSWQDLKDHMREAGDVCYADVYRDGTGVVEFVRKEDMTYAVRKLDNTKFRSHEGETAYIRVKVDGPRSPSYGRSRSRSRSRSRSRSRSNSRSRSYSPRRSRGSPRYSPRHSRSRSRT

Sequence of Clk1 (Cdc2-like kinase), endogenous, from human platelets (chain, as listed by the source): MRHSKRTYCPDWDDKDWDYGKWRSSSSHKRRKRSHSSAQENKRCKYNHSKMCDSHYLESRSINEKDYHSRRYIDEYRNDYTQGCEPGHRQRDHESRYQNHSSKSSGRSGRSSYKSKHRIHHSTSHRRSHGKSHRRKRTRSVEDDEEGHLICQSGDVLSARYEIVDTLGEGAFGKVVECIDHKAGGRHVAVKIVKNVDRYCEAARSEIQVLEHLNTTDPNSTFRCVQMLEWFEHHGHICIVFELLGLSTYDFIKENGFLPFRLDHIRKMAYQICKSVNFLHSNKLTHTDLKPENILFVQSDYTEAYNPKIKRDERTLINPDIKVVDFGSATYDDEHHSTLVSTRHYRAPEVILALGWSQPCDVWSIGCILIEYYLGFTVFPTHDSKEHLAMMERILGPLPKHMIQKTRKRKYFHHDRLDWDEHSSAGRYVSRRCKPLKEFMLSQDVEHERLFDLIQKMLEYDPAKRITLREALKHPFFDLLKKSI

For “Clk1 (Cdc2-like kinase), endogenous, from human platelets”, the “SF2/ASF phosphorylation (immune complex kinase assay)” value was “Clk1 from activated platelets (grown on immobilized fibrinogen in the presence of thrombin for 30 minutes) markedly increased SF2/ASF phosphorylation”.
